Tests used:
[1] = biological target: native LY6S-iso1 protein (hLY6S-E, with its endogenous signal peptide) expressed in HEK293 cells (Homo sapiens, UniProt P0DTL4); experiment: immunostaining of cells or tissue
[2] = biological target: endogenous LY6S-iso1 protein in human spleen cells (Homo sapiens, UniProt P0DTL4); experiment: immunostaining of cells or tissue
[3] = biological target: recombinant hFc-LY6S-iso1 fusion protein (Homo sapiens, UniProt P0DTL4); experiment: immunoblot

Measured: binding result

Chain of recombinant hFc-LY6S-iso1 fusion protein (P0DTL4 27-134): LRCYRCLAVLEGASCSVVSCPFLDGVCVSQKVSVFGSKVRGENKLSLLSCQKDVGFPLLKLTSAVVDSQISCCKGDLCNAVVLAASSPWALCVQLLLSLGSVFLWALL
Chain of endogenous LY6S-iso1 protein in human spleen cells (P0DTL4 27-134): as above
Chain of native LY6S-iso1 protein (hLY6S-E, with its endogenous signal peptide) expressed in HEK293 cells (P0DTL4 27-134): as above

B1: anti-LY6S-iso1 monoclonal antibody 5E12 (antibody, V domains shown)
VH: QVQLKQSGAELVRPGASVKLSCKAWGYTFTGYEMHWVKQTPVHGLEWIGAIYPGSGGTAYNQKFKGQATLTVDKSSNTAYIELSSLTSEDSAVYYCTVYDFWGQGTTLTVSS
VL: DVVMTQTPLSLPVGLGDHASISCRSSQSLLKSDGNTYLHWYLQKSGQSPKLLIYKVSNRFSGVPDRFSGSGSGTDFTLKISRVEAEDLGVYFCSQSTHVPYTFGGGTKLEIK
binds: all assays above

Reference: article doi:10.1101/2021.12.16.472998 (bioRxiv, 2021)
